# Test results: article doi:10.1101/2023.06.15.545202
# Experiments:
# [1] = target: PAN domain of SpG-type LecRLK-2 (amino acids 322-400), secreted His-Avi-sfGFP fusion (Salix purpurea); experiment: SEC
# [2] = target: PAN domain of SpG-type LecRLK-2R (amino acids 322-400), secreted His-Avi-sfGFP fusion (Salix purpurea); experiment: SEC
Substance,percent in higher-order complex [1] [%],percent monomeric [1] [%],percent monomeric [2] [%]
"PAN domain of SpG-type LecRLK-2 (amino acids 322-400), secreted His-Avi-sfGFP fusion (domain or fragment)",48.2,51.8,
"PAN domain of SpG-type LecRLK-2R (amino acids 322-400), secreted His-Avi-sfGFP fusion (domain or fragment)",,,26.4
